Assay results from patent US20100184701A1 (TREVENA, published 2010).
Non-standard residues stand in square brackets, D forms with d. No end group written: not given here. Sar = CNCC(=O)O

T1: rat angiotensin 2 type 1 receptor (rat, UniProt P25095 1-359)
T1 sequence (looked up): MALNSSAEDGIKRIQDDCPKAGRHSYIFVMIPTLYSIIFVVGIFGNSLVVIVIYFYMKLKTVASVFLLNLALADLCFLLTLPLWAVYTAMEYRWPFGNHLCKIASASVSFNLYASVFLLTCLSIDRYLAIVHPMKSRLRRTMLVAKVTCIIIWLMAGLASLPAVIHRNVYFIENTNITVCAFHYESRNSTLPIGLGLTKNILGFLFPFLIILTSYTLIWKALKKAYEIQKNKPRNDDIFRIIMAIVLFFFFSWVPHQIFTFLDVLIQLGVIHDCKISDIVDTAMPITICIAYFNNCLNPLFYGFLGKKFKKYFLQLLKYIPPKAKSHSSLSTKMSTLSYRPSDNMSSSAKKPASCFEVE

T2: human angiotensin 2 type 1 receptor (human, UniProt P30556 1-359)
T2 sequence (looked up): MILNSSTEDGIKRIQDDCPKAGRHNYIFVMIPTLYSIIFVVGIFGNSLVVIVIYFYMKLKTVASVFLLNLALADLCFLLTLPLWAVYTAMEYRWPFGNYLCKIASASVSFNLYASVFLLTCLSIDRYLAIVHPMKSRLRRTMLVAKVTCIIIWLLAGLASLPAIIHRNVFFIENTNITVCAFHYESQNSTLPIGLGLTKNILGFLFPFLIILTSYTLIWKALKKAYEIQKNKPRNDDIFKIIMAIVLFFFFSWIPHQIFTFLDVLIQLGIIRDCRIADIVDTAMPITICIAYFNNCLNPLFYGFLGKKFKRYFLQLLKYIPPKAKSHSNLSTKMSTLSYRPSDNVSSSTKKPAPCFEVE

B1: SEQ ID NO: 43 (peptide)
peptide: [Sar]RVYKHP-NH2
modifications: N-terminus assumed
SMILES: CNCC(=O)N[C@@H](CCCNC(=N)N)C(=O)N[C@H](C(=O)N[C@@H](Cc1ccc(O)cc1)C(=O)N[C@@H](CCCCN)C(=O)N[C@@H](Cc1c[nH]cn1)C(=O)N1CCC[C@H]1C(N)=O)C(C)C
B2: SEQ ID NO: 55 (peptide)
peptide: [Sar]RVYVH-NH2
modifications: N-terminus assumed
SMILES: CNCC(=O)N[C@@H](CCCNC(=N)N)C(=O)N[C@H](C(=O)N[C@@H](Cc1ccc(O)cc1)C(=O)N[C@H](C(=O)N[C@@H](Cc1c[nH]cn1)C(N)=O)C(C)C)C(C)C
B3: SEQ ID NO: 45 (peptide)
peptide: [Sar]RVYRHP-NH2
modifications: N-terminus assumed
SMILES: CNCC(=O)N[C@@H](CCCNC(=N)N)C(=O)N[C@H](C(=O)N[C@@H](Cc1ccc(O)cc1)C(=O)N[C@@H](CCCNC(=N)N)C(=O)N[C@@H](Cc1c[nH]cn1)C(=O)N1CCC[C@H]1C(N)=O)C(C)C
B4: SEQ ID NO: 53 (peptide)
peptide: [Sar]RVY[dA]HP-NH2
modifications: N-terminus assumed
SMILES: CNCC(=O)N[C@@H](CCCNC(=N)N)C(=O)N[C@H](C(=O)N[C@@H](Cc1ccc(O)cc1)C(=O)N[C@H](C)C(=O)N[C@@H](Cc1c[nH]cn1)C(=O)N1CCC[C@H]1C(N)=O)C(C)C
B5: SEQ ID NO: 49 (peptide)
peptide: [Sar]KVYIHP[dA]-OH
modifications: N-terminus assumed
SMILES: CC[C@H](C)[C@H](NC(=O)[C@H](Cc1ccc(O)cc1)NC(=O)[C@@H](NC(=O)[C@H](CCCCN)NC(=O)CNC)C(C)C)C(=O)N[C@@H](Cc1c[nH]cn1)C(=O)N1CCC[C@H]1C(=O)N[C@H](C)C(=O)O
B6: SEQ ID NO: 50 (peptide)
peptide: [Sar]RVYIKP[dA]-OH
modifications: N-terminus assumed
SMILES: CC[C@H](C)[C@H](NC(=O)[C@H](Cc1ccc(O)cc1)NC(=O)[C@@H](NC(=O)[C@H](CCCNC(=N)N)NC(=O)CNC)C(C)C)C(=O)N[C@@H](CCCCN)C(=O)N1CCC[C@H]1C(=O)N[C@H](C)C(=O)O
B7: SEQ ID NO: 40 (peptide)
peptide: [Sar]RVYEHP-NH2
modifications: N-terminus assumed
SMILES: CNCC(=O)N[C@@H](CCCNC(=N)N)C(=O)N[C@H](C(=O)N[C@@H](Cc1ccc(O)cc1)C(=O)N[C@@H](CCC(=O)O)C(=O)N[C@@H](Cc1c[nH]cn1)C(=O)N1CCC[C@H]1C(N)=O)C(C)C
B8: SEQ ID NO: 42 (peptide)
peptide: [Sar]RVYHHP-NH2
modifications: N-terminus assumed
SMILES: CNCC(=O)N[C@@H](CCCNC(=N)N)C(=O)N[C@H](C(=O)N[C@@H](Cc1ccc(O)cc1)C(=O)N[C@@H](Cc1c[nH]cn1)C(=O)N[C@@H](Cc1c[nH]cn1)C(=O)N1CCC[C@H]1C(N)=O)C(C)C
B9: SEQ ID NO: 41 (peptide)
peptide: [Sar]RVYFHP-NH2
modifications: N-terminus assumed
SMILES: CNCC(=O)N[C@@H](CCCNC(=N)N)C(=O)N[C@H](C(=O)N[C@@H](Cc1ccc(O)cc1)C(=O)N[C@@H](Cc1ccccc1)C(=O)N[C@@H](Cc1c[nH]cn1)C(=O)N1CCC[C@H]1C(N)=O)C(C)C

Target: T1, rat angiotensin 2 type 1 receptor
Assay: cell-based or functional assay

IP One EC50 [nM]	IP One Max (%)	b-arrestin2 EC50 [nM]	b-arrestin2 Max (%)	IP One EC50 (M)	Binder
260	17.9	910	64.8	–	B1
–	13.9	–	42.1	–	XRVFIHPA (Sar (sarcosine) at 1; D-Ala at 8) [SEQ ID NO: 48]
–	14.7	1900	60.7	–	FVYIHPFVYIHPFVYIHP (cyclic, as printed: Cyclo(...)) [SEQ ID NO: 37]
–	–	63	–	> 1e-05	ARVYIHPA (NMAla (N-methyl-L-alanine) at 1; D-Ala at 8) [SEQ ID NO: 46]
6.8	98.8	42	95.6	–	B2
26	10.2	27	91.7	–	B3
–	–	31	86.9	> 1e-05	ARVYVHPA (NMAla (N-methyl-L-alanine) at 1) [SEQ ID NO: 33]
20	98.4	160	98.5	–	DRVYIHPG-OH [SEQ ID NO: 56]
–	–	32	81.7	> 1e-05	ARVYIHPA (NMAla (N-methyl-L-alanine) at 1) [SEQ ID NO: 34]
–	6.8	–	80.2	–	GRVYIHPA (Me2G (N,N-dimethylglycine) at 1) [SEQ ID NO: 32]
100	19.2	1900	32.8	–	RVYIHPRVYIHPRVYIHP (cyclic, as printed: Cyclo(...)) [SEQ ID NO: 36]
–	14.1	–	77	–	DRVYIHPA [SEQ ID NO: 25]
–	–	110	5.8	> 1e-05	XRVYIHP (Sar (sarcosine) at 1; D-Pro at 7; C-terminal amide (NH2)) [SEQ ID NO: 51]
–	–	420	12.2	> 1e-05	B4
–	–	630	52.9	> 1e-05	B5
13	6.2	–	75.9	–	GRVYVHPA (Me2G (N,N-dimethylglycine) at 1) [SEQ ID NO: 31]
–	–	270	85.6	> 1e-05	B6
8.2	14.6	–	–	–	ARVYIHPA (NMAla (N-methyl-L-alanine) at 1; D-Ala at 8) [SEQ ID NO: 44]
300	8	440	83.8	–	XRVYYHP (Sar (sarcosine) at 1) [SEQ ID NO: 52]
–	–	31	87.9	> 1e-05	B7
–	–	2100	72.2	> 1e-05	ARVYIHPA (NM-D-Ala (N-methyl-D-alanine) at 1) [SEQ ID NO: 47]
–	20.8	2500	66.4	–	VYIHPF (cyclic, as printed: Cyclo(...)) [SEQ ID NO: 38]
–	–	270	74.9	> 1e-05	B8
–	–	17	83	> 1e-05	XRVYVHP (Sar (sarcosine) at 1) [SEQ ID NO: 54]
–	–	660	53.1	> 1e-05	B9

Target: T2, human angiotensin 2 type 1 receptor
Assay: cell-based or functional assay

IP One EC50 (M)	b-arrestin2 EC50 [nM]	b-arrestin2 Max (%)	IP One EC50 [nM]	IP One Max (%)	Binder
> 1e-05	2100	42.7	–	–	B1
> 1e-05	1800	48.1	–	–	XRVFIHPA (Sar (sarcosine) at 1; D-Ala at 8) [SEQ ID NO: 48]
> 1e-05	–	62.3	–	–	FVYIHPFVYIHPFVYIHP (cyclic, as printed: Cyclo(...)) [SEQ ID NO: 37]
> 1e-05	–	–	–	–	ARVYIHPA (NMAla (N-methyl-L-alanine) at 1; D-Ala at 8) [SEQ ID NO: 46]
–	220	92.7	96	97.6	B2
> 1e-05	30	53.3	–	–	B3
> 1e-05	–	54.9	–	–	ARVYVHPA (NMAla (N-methyl-L-alanine) at 1) [SEQ ID NO: 33]
–	550	104	660	96.5	DRVYIHPG-OH [SEQ ID NO: 56]
> 1e-05	25	53	–	–	ARVYIHPA (NMAla (N-methyl-L-alanine) at 1) [SEQ ID NO: 34]
–	–	55.6	–	–	GRVYIHPA (Me2G (N,N-dimethylglycine) at 1) [SEQ ID NO: 32]
> 1e-05	1200	39.5	–	–	RVYIHPRVYIHPRVYIHP (cyclic, as printed: Cyclo(...)) [SEQ ID NO: 36]
–	–	57.9	–	–	DRVYIHPA [SEQ ID NO: 25]
> 1e-05	330	20.2	–	–	XRVYIHP (Sar (sarcosine) at 1; D-Pro at 7; C-terminal amide (NH2)) [SEQ ID NO: 51]
> 1e-05	1600	33.6	–	–	B4
> 1e-05	1000	72.7	–	–	B5
–	100	58.1	–	–	GRVYVHPA (Me2G (N,N-dimethylglycine) at 1) [SEQ ID NO: 31]
> 1e-05	680	56.8	–	–	B6
> 1e-05	–	–	–	–	ARVYIHPA (NMAla (N-methyl-L-alanine) at 1; D-Ala at 8) [SEQ ID NO: 44]
–	1400	45.9	–	–	XRVYYHP (Sar (sarcosine) at 1) [SEQ ID NO: 52]
> 1e-05	95	53.2	–	–	B7
> 1e-05	4800	80.5	–	–	ARVYIHPA (NM-D-Ala (N-methyl-D-alanine) at 1) [SEQ ID NO: 47]
> 1e-05	680	43.1	–	–	VYIHPF (cyclic, as printed: Cyclo(...)) [SEQ ID NO: 38]
> 1e-05	630	46.4	–	–	B8
> 1e-05	42	58.6	–	–	XRVYVHP (Sar (sarcosine) at 1) [SEQ ID NO: 54]
> 1e-05	1600	30.1	–	–	B9
